{"source": "paper PMC12094035", "target": "human γ-tubulin ring complex (γ-TuRC), the reconstituted complex without NEDD1 (human) (UniProt P23258)", "test": "cryo-EM structure; NEDD1-containing rec-γ-TuRC; free particles in micrographs of Aher et al. (2024), processed anew; consensus map 4.7 Å; model from AlphaFold 3 predictions fitted to the map and refined, side chains trimmed to β-carbons", "data": [{"substance": "neural precursor cell expressed, developmentally downregulated 1 (NEDD1), full length, in the reconstituted human γ-TuRC (from UniProt Q8NHV4 1-660) (natural protein)", "values": [{"measurement": "stoichiometry N", "result": 4}]}]}
